According to US20110268740A1 (INTERCELL, published 2011):
Changes are numbered by the printed parent chain.

B1: scFv-E040-msFcγ2c (Fc fusion)
chain: DADPAQAAELVMTQSPDSLAVSLGERATINCKSSQSVLYSSNNENYLAWYQQKPGQPPKLLIYWASTRESGVPDRFSGSGSGTDFTLTINSVQAEDVAVYYCQQYFMTPITFGQGTRLEIKGGSSRSSSSGGGGSGGGGEVQLLESGGALVQPGRSLRLSCRTSGLNFGDYPINWVRQAPGKGLEWVGFIKSKSYGVTTEFAASVEGRFTISRDDSRGIAYLQMNSLKTEDTAVYYCTSSSGFLYYFDYWGQGTLVTVSSASTKGPSVTSGQAGRKLEPRVPITQNPCPPLKECPPCAAPDLLGGPSVFIFPPKIKDVLMISLSPMVTCVVVDVSEDDPDVQISWFVNNVEVHTAQTQTHREDYNSTLRVVSALPIQHQDWMSGKEFKCKVNNRALPSPIEKTISKPRGPVRAPQVYVLPPPAEEMTKKEFSLTCMITGFLPAEIAVDWTSNGRTEQNYKNTATVLDSDGSYFMYSKLRVQKSTWERGSLFACSVVHEGLHNHLTTKTISRSLGK
B2: scFv-D005-msFcγ2c (Fc fusion)
chain: B1 chain with S40T, E44K, A48G, K59N, L144V
B3: scFv-F052-msFcγ2c (Fc fusion)
chain: B1 chain with L10R, S18A, V37L, E44K, Q52K, D84E, R117K, E140Q, L144Q

Each binder was assayed against T1, M2e (SEQ ID NO:48) conjugated to RNAse A (Influenza A virus (consensus of H1, H2 …)) (assay: ELISA, apparent affinity, purified scFv-msFcγ2c on immobilised RNAse A-M2e).

In order of falling EC50:
1. B1  0.0883 nM
2. B2  0.0815 nM
3. B3  0.0506 nM

The binders below were run against T1, M2e (SEQ ID NO:48) conjugated to RNAse A (assay: not given).

In order of falling Kd:
1. B1  13 pM
2. B3  6 pM
3. B2  4 pM
